The results in this text go back to the DeepSol protein solubility set.

A short description of this data set: soluble on expression in E. coli; label from the status in PepcDB or PDB records.
On to “MHFYKYGVLINQLSDSFEWRVAFLDGSVSDHCCITVPSEKFNFPPTPGATVKAKFEHANSFLPSLVAQCGSFEWFRDVTVVNSKVVIFAIVHFSNECLERDPFKINGMDYSIIENENTDFQKIVLPTRVLQTSITSRSNLQNTDTPFIYRIGVCWEPISFENGVTVNWRYYADFPITPIFELYYRETTLPYIAESMVYGVLEGVVIAENDHGALFWTPKMGCAILPSTSLDTPMPSLGSVHVILVKRCIPENSFGFSCSYELLSSFRSTEWPNLKVITDQITRKVYIEANASCRSMMENQDFPSMNVPHIGKVFRGLQQYRDKLSAGHLYDFRMEFQKEEGSFVPTIVDLCLEEDEMVDCRVVYISNETSTYFAVLDPSSNSFDRFKQSIDYIAIPFRVLFCANGVHVKNEELLLNSYKVRVRVPRNRHDVVNAIHVEHVIQSPKDPAYFITNGSVWLRTTVKFQNASRYELLCPLLEQKIIDVNGVTAAMSLTQEFTVHAQFVLMERNVPVFVVRQLASTVREHPRTTNYPSRSLNLSYEVSGALARTNPNGQLSAADNNIVLINDSISLDHNLPDTGEYPTILNESSFERQLLFDNQSIADSASTSGDFILTESVYESSSAASTCTVIDRNDARFSALNDDSNILISESWLDSTNQHSETTMDTPEIITESFYESTHDQASSRASTVDRLASDVDKISIGRPDYSPPPRRRIFGYSTPGDRVRPRNSYGSSSSGSLNGRPKRRAPYGFRQIRNITPHNVLLRDIIYNNINNRKMFVEQNKNAILKCWNRLPLAQVTRTTKLSVTVIAVESIKFPPSFDETCIKGLVRFVALGVGVDINLRNMSIVVPIGGKFNNLPKSFQLGETYRVYHFSSKVDRICRLGGFSFGLKGGMRNEEPPDRNNWFSDPQTVNGRDGQSYLRCTVNAERPANAEIESDFFELWSTTALPGFIIVEKVPQLMKHLNEELLDPDVHSRFTYSCVIEPLAGGPVEASILKDLKYDEEFCIFWRLVVEFSDTVPLPRLIIKSKIYVPPPPVVPVYVTPFTVNDFGCWETHRINSILHQARIDRLRAAGHMRVKMLDGPDMKPEIEIRKVDVNTRREKMFTAFDALLEKLPQLHSEGILEYVLEDDLREKIEYLLPMTDDNHKFQFRARNDSLTIGLNYLTDMLTKGKVYKMLYEKQEYVPLLKVLSDCIGLNTTYIKKTDAVTMMLQFMYRNELHTYM”, for which the “soluble on expression in E. coli” value is given as “not soluble”. Take “MGSDKIHHHHHHMNAETPQNLMVASLQAPPVRTVVADPQSVHAAIESRFCCREFLADPVERETMERILRVASWAPSGSNNQPWKVYVVQGASRAALSQKVRAAQDALSQDPTLADNYREPYQYYPVEWVSPYIERRRACGFGLYGVLNIARGDRVRMNEQLLRNFDFFGAPVGIFFTNDEILAEGALVDTAMFVQNVMLAARAEGLHTCVQAAWNRFSSVVLPHIGAQGERLVCALALGHADVDAPVNTFRPDRADPASFTAWLD”: the “soluble on expression in E. coli” value is listed as “not soluble”. As to “MGSDKIHHHHHHMEDYEGKFSPSELKLKGIHTSTTFWTVGMIVQQYKNGHLVIPKIQRGYVWNEEKARRFIMSLLQGFPIPPIFIIELSGKFYVVDGQQRIRTILWFLGEDNELLEKLGPLRVPIKELAENYNEYGVTNLSEAIIKKIIFGNHPKEFNYKYFTKDFRQYFESLSIPVQHISISSGKEYILTDIFLRINQGSVKLSAMELWRVYYGKDIEEYFHKLNELARYTVAKIYEVSNGKISRQKLERFRIDEFILTFDVLINGLITPPNYIPKDAKLGAVIFSQKTTLKKVKIFVLENRRKVFKNNKGELKKFLDYLEREYKEILKMITYVLGEFTFRRPTIGNECQYALIRPSGNDINEAVFLYEVAIFKLLKDNGHSELIYENKDFIKHVILTSLIENDELFSRSTSTFRSVANKLELAKLTYKKIITKEDNITKDNLKRLLYEKFRASRVSNPVCPYCKEPISDISVADLAHIRPLAFGGQTYIHNLTLAHSTCNRRFGVRDISQYINRC”, the “soluble on expression in E. coli” value is reported as “not soluble”. With “MGSDKIHHHHHHVTRVAVVGDSLSAYAVAAVLTKLGYNCDLLCYPTKSNFYGPSLVLNDVSETLLSELFPDVNLGVDSQRLTHRWVCWGTQPVQIEQPALAIRSNSLLELLRNSKVMQHTRMIDASQLTAQQISQKYAWTVYTKHKQRGMPTLGEPCLQNAARSLLPRSRSVPQGSGTPTAGVAIALSESSQSLIGGQRVIVTAEVQDTPKSAYTCYMESLAEGWLFYAPVNGSGAMVQACLPITPANPRRALLECLYKSTTISTFVNDLQKVNCFFSAPYLEWPLCGLGWLMVGEPAIKIDPVSGEGTPFALRSAILAGAVIDAILSDRIPDISALNHYQTRLTHSFISHLRGCIQFYREVFSTNLAWQAEINQMIDIAETLSTQLEQQAVNVLNYRLIDFELHIG”, the “soluble on expression in E. coli” value was “not soluble”.

In the case of “MASTRPDNVLVWMASRGSYVESMPGTILRIKNASKFGENLYGFKDQPGELVEVTWDAMFKLRPTLVEVDFGRNPCDELVKVIEKNYNNEQISHFFEKVKALSLHMTDITSESLLKLMDKFTLLAAFSFSETKFSTPEWATILKRLSELNLRGIDLSDNILSEVQQHIDVSLMKLSGNPGVDVNEFKKGIEFVTVKVLAVQELKFLGETDAEQLLEVLPQSFPRLETLIWDWNVVDPELNFDERTKKVLDQLLFVNKQLNLGSLAVVAYTPNPETKTAIESVARTLKGSIKDVQLHQFATKGLSDGMANFSLIVAGNNEKAMKELMDMYMVDRSTMPPMGKLLRLCEEDIVPIYPAITMDFGGFNKNRIRQLYTESPTD”, the “soluble on expression in E. coli” value is reported as “not soluble”.

“MGHHHHHHSHMKNYYYFLGQGLTLSPRLECSSTISAHCNLHLLGSSNSPVAASPVAGTTGTCHHDWLIFVFLVETGFHHIGQTGLEFLTSGDPPTLASKSAGITGVSHCAWPTFLLNDMRHSFNKNLVIIFYVPAIS”: the “soluble on expression in E. coli” value is “not soluble”. “MGSDKIHHHHHHMLAQGQRFEGLLCGDDSSRCEVVEMAKLTQFLISGACALLITATSAIADPIAPAGKAIGQDGGGHTIYQVDANGISIGYKLIGQGAPMVMIMGLGGTADNWPPQVIEALSKNHQLILMDNRGMGHTTANDTPFSYPLFAADVIGLLDALGIKRSDVLGYSMGSTITQQLLLQYPDRFNKALIHATSTDGSNVAKALHGRVPTDPIVARQVEATTHWKTPLDKLPSIDNQVMLVVGTADNVVGTESSKTIASAIPGAWLVQFKGATHHLMYETPEGFSAAALTFFETNETVTPKIEPNASVAPPPTQP”: the “soluble on expression in E. coli” value is given as “not soluble”. The entry for “MSLTLSIPPSIQCQTEAACRLITRVTGDTLRAIHLYGSAVAGDLKPNSDIDLLVTICQPLTETQRATLMQELLALSSPPGASAEKRALEVTVVLYSQLVPWCFPPSREMQFGEWLREDIYQGIYEPAQQDWDMVLLITQILETSIPLKGERAERLFTPAPAAQLLKALRYPLDLWQSTADVQGDEYHIVLTLARIWYTLSTGRFTSKDAAADWLLPQLPEEYAATLRAAQREYLGLEQQDWHILLPAVVRFVDFAKAYIPTQFTEGHHHHHH” is “soluble”. The entry for “MNRARDWLEQARHNLRHAQGSLGLGDYAWACFAAQQAAEAALKGLHLARGQVAWGHSILDLLADLPEDVDVPEDLVEAAKVLDKYYIPTRYPDAHPAGPAARHYTRLEAEEALDLAQKILAFVEEKL” is “soluble”. For the sequence “EFGQNRATLLASIDVALEHAELFAADDDQMGLFLDESFSIKPKYVETEELPLVDLLAFEKETLGIYFSNHPLSAFRKQLTAQGAVSILQAQRAV”, the “soluble on expression in E. coli” value was “not soluble”. “MGSDKIHHHHHHMSLEAPDLLRIRALPLFEAVNDGAFDRLMRGAFLQRFPRGSQLTTQGQPDNFLFVLLEGAIELEGSSSDRESTLALLWPSASLCLASIVLDGPSLMTARTTKGSLILMVPGDAFRQALEEDAGLGRAVAEELAGCFSGAVRSLKNNKLRTARERLVSYLLAQHQRQGGGAVVKLPCRKRVLASLLGMTPENLSRAFASLGPHGVEIDGSTVTLREPEGLAQLARPDPMIDNPIGESFSQAERERRRGGRTAIAAH”: the “soluble on expression in E. coli” value is “not soluble”. “MGSDKIHHHHHHMANEATQELFQVLDNTAIILQNELEISYLEAVYETGENLFQKEVLQKEELSSEKQLKLQESYESIELENFSNEEIRKGLQLALLKGMKHGIQVNHQMTPDSIGFIVAYLLEKVIQKKKNISILDPACGTANLLTTVINQLELKGDVDVHASGVDVDDLLISLALVGADLQRQKMTLLHQDGLANLLVDPVDVVISDLPVGYYPDDENAKTFELCREEGHSFAHFLFIEQGMRYTKPGGYLFFLVPDAMFGTSDFAKVDKFIKKNGHIEGIIKLPETLFKSEQARKSILILRKADVNVKPPKEVLLANLSSLTDPSVTAPILAEIENWFKSKQ”: the “soluble on expression in E. coli” value was “not soluble”. For the sequence “EADYKQATALELATLVREKKVTSEELVKIALAITKRENPTLNAVITLREEAALTEAKALQDTGQPFLGVPLLLKGLGQSLKGESNTNGFGFLQDQVAGGTSTFVKALQNAGFIIIGQTNYPELGWKNISDSKLYGVSVNPWNPNHYSGGSSGGAGASVAAAFVPIASGSDAGGSIRIPASWTGTVGLKPSRGVIIGNSNSAKGQTVHFGLSRTVADTNALFETLLTKKDLPAGHLSQAQPIAYTTESPAGTPISAEAKEAVAEAVAFLKDQGYTLVEVKHPVDGERLMKNYYTVAAGSAGIADFMARQKLKRPLERNDVELLTWALFQTGKNITSEETTAAWTDIALQAQAMDEFYQQYPILLTPTTAATAPSIDNPLLKPEHAAQMEKIDQLSPAEQKQLIYDQWLTAFTYTPFTQQANLFGHPALSVPTYVSKEGLPLGIQFNSALNEDRTLLQLGALFENNHK”, the “soluble on expression in E. coli” value is “not soluble”. Under “MGSSHHHHHHSSGLVPRGSHMVNKRMSMVVSGLTPEEFMLVYKFARKHHITLTNLITEETTHVVMKTDAEFVCERTLKYFLGIAGGKWVVSYFWVTQSIKERKMLNEHDFEVRGDVVNGRNHQGPKRARESQDRKIFRGLEICCYGPFTNMPTDQLEWMVQLCGASVVKELSSFTLGTGVHPIVVVQPDAWTEDNGFHAIGQMCEAPVVTREWVLDSVALYQCQELDTYLIPQIP” stands “soluble”; under “MQQLKKIGFNEYEAKSYVSLVKQGPVTAYQVSKDSGVPRARIYEILGNLVEKGIVMKEEINDTTRYSPLPVEIFLQKAQSEWQSTYEGISDSLKKLETSEEKTDNRVITLKDNQTIISYCQALIKKAERRIVISMWDEMYEALKEDLSEVTDKVTIQGITLHVENPIKNLEAHRITPYTETLSTEHWFIVSIDSKEMIYGPSLAERNIAFYTDDPVHIYLLEDYVWHDVLVNRLVRRNQDDLQQWITAERKSFFMGK”, “not soluble”; under “MLFEGLPCLAVWCKNRLSAVLPVGGLNVSENLLEIETHPFDPVLPPKAAVMMMGTFPPKEDKRAMQFHYPNFQNDMWRVYGLVFFNDAAHFQRLSEKAFDAEKIKAFLHERGIASCPTVLKAVRQHGNASDKFLKVVETVDLAAVLAKIPECRHICTTGGKATEILLDIQGGGIKMPKTGETVPFPFAGRDLTLTRLPSTSRAYPLSLAKKAAAYRAFFEMAGLCEKQLLEHHHHHH”, “not soluble”. Under “MPQSKFRLCSTKGTSMFSHIMIGSNDIEKSKVFYDAILSVLGYPAGVIDAKGRCLYINQDGVLGITKPVNGEPATHGNGMTIGFKVSSPELVEAWHAAGLANGGVACEDPPGIRTSGQRKMYLAYLRDPAGNKLCATHHMSTGN” stands “not soluble”; under “MIFRSFFTHRIASMETKRLKLIPACLERAEEAHQAVVRSQKTLEVYLPWVPHVLTLEAMIEGTEKAIANFENFEEELRYYIIEK”, “not soluble”.
